# Data from the DeepSol protein solubility set.
# Test: soluble on expression in E. coli; label from the status in PepcDB or PDB records
row,Sequence,soluble on expression in E. coli
1,MSPQESRRLSIQRCIQSLVHACQCRNANCSLPSCQKMKRVVQHTKGCKRKTNGGCPVCKQLIALCCYHAKHCQENKCPVPFCLNIKHK,soluble
2,MVIINTAAYHFVSITQPQTLADQIRAHGEIAGLKGTVLIANEGINLFLAGEKEAINAFYAWLCADVRFAALHVKYSVSAYKPFARFKVKVRPEIISFRRGDISPLQVRAPGVSAHTLRDWLRRGCDDNGRRLVMLDARNQQEIAYGTFSGAMTLPITKFTGFPGALAHYRDLLSDATVVSFCTGGIRCEKAVLWMRADGMDNVLQLEGGILGYFEQVGGEGYDGRCFVFDKRVALDPQLRPLYDMRVVASFARSEISLEHHHHHH,not soluble
3,MGSGRTWRELKEVFPKLARAKYYTRARYGYCRGYEAVDFVESVRWYYYVLSGLVVLDRPEAKHLEHHHHHH,not soluble
4,MVLVELFGFGPHLMVDGYEANPDRLRDAELIRRVLNELPEEMEMTKVLPPFVYSYGPGGEDGVTGVVIIAESHIAIHTFPKKRFLSVDIFSCKAFDMAKALKKLAEVFEIRRYETYMINRGKEFPKDPELARQIVLGEREYLEARVG,soluble
5,MKLTIHEIAQVVGAKNDISIFEDTQLEKAEFDSRLIGTGDLFVPLKGARDGHDFIETAFENGAAVTLSEKEVSNHPYILVDDVLTAFQSLASYYLEKTTVDVFAVTGSNGKTTTKDMLAHLLSTRYKTYKTQGNYNNEIGLPYTVLHMPEGTEKLVLEMGQDHLGDIHLLSELARPKTAIVTLVGEAHLAFFKDRSEIAKGKMQIADGMASGSLLLAPADPIVEDYLPIDKKVVRFGQGAELEITDLVERKDSLTFKANFLEQALDLPVTGKYNATNAMIASYVALQEGVSEEQIRLAFQHLELTRNRTEWKKAANGADILSDVYNANPTAMKLILETFSAIPANEGGKKIAVLADMKELGDQSVQLHNQMILSLSPDVLDIVIFYGEDIAQLAQLASQMFPIGHVYYFKKTEDQDQFEDLVKQVKESLGAHDQILLKGSNSMNLAKLVESLEN,soluble
6,MGKPTGFMEYKRETPPKKDPFERSKNWQEFTLLMPESALRQQGARCMDCGVPFCQTGTSMDGSGEIGCPVYNLIPEWNDLVYRGHWKEALERLHKTNNFPEFTGRVCPAPCEGSCTVAISDDAVAIKSMEFHIVERGFQEGWIVPNPPRSRTGKKVAVVGSGPAGLAAAAQLNKAGHWVTVFEREDRIGGLLTYGIPDVKLPYHVVERRINLLKEEGIEFRTNVEIGKDVSAKQLKDDFDAVVLCTGATKPRDVNVKGRELKGIHFAMDFLTANTKSLLNSNHQDGNYISAKGKHVVVIGGGDTGADCITTSVRHGAKSITQFDINREKSNERPDNNPWPLFPIVHTVEDGHKEAAAVYGKDPRAYQVMTTKFVGDAEGHVKEIHTISVETTVHPDGSKTRVEIPGTEKVWPADLVFLAVGFTGPEEQLVRELELETDTRSNIKAEYGKYETSLEGVFAAGDNRRGQSLVVWAIHEGREAARECDKYLMGASNLPLEHHHHHH,soluble
7,MKMKYEWRKQEKTTYATKKQPQLLTIPAQTFMSIHGTGNPNGPEFQTHLQTLYPAAYGLKHAYKQYAQTQACEFDDYVVFPLEGVWSLTIKGQQLDHLDKDEFSYDIMIRVPDFVPNELIAPALAAVKAKKQLPTEQINVQQFDAMQVAQILHLGAYDDEPASFAKIDELVANQGMHRTSKIHREIYLSDARRVAPDKLKTILRYRVASN,not soluble
8,GPGSMDDGFSRILLAWFSNNPSFGKTIPVTAGQAVLNTLYIRYVVNKSVSFEDILAYQFRWVSANDAATEVFNKFTDGKESMTSEQLGKFLRDVQRSDVTDRQIVEKFKYCFGGGIHKYNFISYNGSVLTNNAIDPARTSDVWQDMTQSFTHYMVSCARIEAEEDLKRAAADGTRALVLNINKASNGKLMVGSCELQTILEGVKKNGFATNTYPIVLCLSPGTPMPTPVQDEVAKMINDILESAVAEGLMFEGAMINDPKFSPGALRNKVLVMSHQSRLKPFIGFLVADMNKDGLGVRVTDVMEGTPASKGGVLKDDWLTHINGIPIQNKQHLRETLARLKAGDEFTVRRENLHDVKVVVGGAIDPQDTTASASLSSITFFKYSDSNDPKPWDTERIPASSLATTKLTRKDLLTHFAFCTVNSAEASTELPDAEGKAASLGIQFVDVDNSERCLPWTRGRFSDNGRCGYILKTDIDSAKSPELSLSVIGGPRLLNCSPLTSMNVTIHGAGTARVNGSQVSFTDCNQATIAVVQMTFEANGAERTFTSAFCPGLLRPGYRALPSVPFGEERASKKQIHGIYCFIK,not soluble
9,GSMTGKSVKDVDRYQAVLANLLLEEDNKFCADCQSKGPRWASWNIGVFICIRCAGIHRNLGVHISRVKSVNLDQWTQEQIQCMQEMGNGKANRLYEAYLPETFRRPQIDPAVEGFIRDKYEKKKYMDRSLDINA,soluble
10,MSLENVDPFDIIRQFRSVIAKTSLQASSNIEGLDTVWNSDLVLEANFWHLVEILLSFRTSQEFLDKESSISSKPYNSSIIFEKELLQKDKNLYQIWLIIVWIEGNFPFVEKPSNIPSSKWTNTLVTSGLMSSDLDYPLRDCSVVINDKDKADDHVFYKYVYELLLCGNYDQIFEECKLSDNITLNMIMCGMQEYVDPSIDVQLKDEFEVQQGVKKHSLWRRAVYSLSQNDKLDKYERAIYSYLAGDIPNDEVLQTLNWDSELLVYLNQILKIEVENYLLQNGKVNNDELILSLPSNTMDLQSILNLLSAKHPEESEHPIRVLIGSVMLNTIPSVLHSSVSMLMNVVTGIENDNDIFGEPYLLRVVTHMTIFLEILNPGTISESDKTKLITAYISILKSQELYDLIPIYISFLSHNEAIEASSFILSNLEGKDIRKKQLEICNFLKLPVEDMLKRTTQCVFAETEGHHHHHH,not soluble
11,VDWTDAERSAIVGLWGKISVDEIGPQALARLLIVSPWTQRHFSTFGNLSTPAAIMGNPAVAKHGKTVMHGLDRAVQNLDDIKNTYATLSVMHSEKLHVDPDNFRLLADCITVCVAAKLGPAVFSADTQEAFQKFLAVVVSALGRQYH,soluble
12,EMVKLQSVITGSMQTGRSRARIEQAVVALLTYVEEETDAFQILVRDMKAGQDHSYSTLLNDAVEQVSHILGQAFERSGLNPKNATLYAQALVGMVSMTAQWWLDRRKEPNAATKEQVAAHIVNLCWNGLAGMEANPQLSNIDSPPETLGAH,not soluble
13,MRLHIGGREKHPDWKIFDALERPEVNFVGNAADLSQFADDSIEAIYASHVLEHFHHSLGNELVSVLLEWRRVLLPNGKLYISVPDLQTLSWLFLSPMAGFQHRLQIMRMMFGGQVDQYDVHKVGFDCEILFTYLQAAKFSDYERVENFELFQDCSNLVFLGYPISLNVVAVKLEHHHHHH,not soluble
14,MFFVSLLFEFFDSIFEIAVMLGFEMLCRMAADSSVLHCLVAAYMGLGKLPATTEKHTYAQQDKSQSDQQKRSQKNCSHLLLYLRNTKVRFSYPQRSTINNS,not soluble
15,GPTSPGPALTDWARVREELASTGPPVVAMPVVIKTEGPAWTPLEPKLITRLADTVRTKGLRSPITMAEVEALMSSPLLPHDVTNLMRVILGPAPYALWMDAWGVQLQTVIAAATRDPRHPANGQGRGERTNLNRLKGLADGMVGNPQGQAALLRPGELVAITASALQAFREVARLA,soluble
16,GSPALDTGTTEEDRLKIDVIDWLVFDPAQRAEALKQGNAIMRKFLASKKHEAAKEVFVKIPQDSIAEIYNQCEEQGMESPLPAEDDNAIREHLCIRAYLEAHETFNEWFKHMNSVPGGSGGSWKGHLDALTADVKEKMYNVLLFVDGGWMVDVREDAKEDHERTHQMVLLRKLCLPMLCFLLHTILHSTGQYQECLQLADMVSSERHKLYLVFSKEELRKLLQKLRESSLMLLDQGLDPLGYEIQL,soluble
17,MGHHHHHHSHMPTTSRPALDVKGGTSPAKEDANQEMSSVAYSNLAVKDRKAVAILHYPGVASNGTKASGAPTSSSGSPIGSPTTTPPTKPPSFNLHPAPHLLASMQLQKLNSQYQGMAAATPGQPGEAGPLQNWDFGAQAGGAESLSPSAGAQSPAIIDSDPVDEEVLMSLVVELGLDRANELPELWLGQNEFDFTADFPSSC,not soluble
18,AHHHHHHGSVNIMDEIIVVTTPTIPGYKIIEVKGIARGGIVMATHLGRDILALLRNIKGGEVKEYTQMMAEAREEALRRMIEHAKKLGANAVVNFRFATSNVGGGMAEVYAYGTAVVVEREK,not soluble
19,MSLWPQMQYRQLQLAREKLLERLARKRNSTVITLIHRQESIGLFGIPVYRFISIEDSEEVLRAIRMAPKDKPIDLIIHTPGGLVLAATQIAKALKDHPAETRVIVPHYAMSGGTLIALAADKIIMDPHAVLGPVDPQLGQYPAPSIVRAVEKKGVDKVDDQTLILADVAEKAIRQVRDFIFNLLKDKYGEEKAKELAQVLTEGRWTHDYPITVEEAKKLGLNVSTDVPEEVYALMELYKQPIRQRGTVEFVPYPMKQEGKHEGHHHHHH,soluble
20,SAPPLLSLPLCILPPGSGSPRLVCYCERDSGGDGDRDDFNLYVTDAAELWSTCFSPDSLARLKARFGLSGAEDIHSRFRAACQQQAVTVSLQEDRALITLSGDTPALAFDLSKVPSPEAAPRLQALTLSLAEHVCNLERRLAAAEETITSPKKNTQPAGTQFLPELDHQRGSSGPGVRRRCPGESLINPGFKSKKPAAGVDFDET,soluble
21,MNSEQQQTVFLCVSYLLSYPDEQWAESLPDCLDAIRSLDDETVRAPLLAFAEQINSIPARQRMEQYVETFDFGKKTNLYLTYMTNGEQRERGIELVALKARYQAAGFAVSDHELPDYLPLMLEWMAYADQEHTTALLADYAGHIREIGDRLAAAGSPYAQLFDALNHTFTQLGVTPLPKGGATAWPANFSG,not soluble
22,MATEVTFFDELKIDNKVDIIGNNVRGELPNIWLQYGQFKLKASGGDGTYSWYSENTSIATVDASGKVTLNGKGSVVIKATSGDKQTVSYTIKAPSYMIKVDKQAYYADAMSICKNLLPSTQTVLSDIYDSWGAANKYSHYSSMNSITAWIKQTSSEQRSGVSSTYNLITQNPLPGVNVNTPNVYAVCVE,soluble
23,MGNFYSLGKKEPVIRLLQITDCHLFSSESECLLGINTTETFQAVIEHIHQTDFAYDAVLATGDLIQDHNPEAYHRFAEMAKQFVKPLFWLEGNHDKQPQMSLYLGKHPHIQPEKQLLAGEKWQILLLNSQVAGAPSGYLSAGQLAWLNSKLAKHLDRYALVVLHHNILPTNSAWLDQHCLKNSEQLAKVLKSYRNVKAILHGHIHQEVDRVWQGYRVLATPSTCIQFKPNCRDFTLDMLPQGWREISLLEDGSIETTVKRLASNQFLPDFQSKGY,not soluble
24,MGSDKIHHHHHHAPPTFPEVKKIHAHRLSDELLISYPLDMAVSEDYIFILALADNAWLQVYDKTTGQLLGSFVTRGQGPGEATTANMCYYNAREKKISVYDESSMKLLTYRFDKDADNWGALIEERSFYDLGGTVRRVWELRNGRFLVDGQLGTKSDQQKRFQMLADAKVVADYNDFPIDTPKERSVWSSPAIAISPDCKKMAVGTLYGGILELFDLSQNIELRAIRKFYPPVVQYLSGTIQNTEETVWGFSALCVTDERIYSVFIGDKNPNLFNNLSVFDWDGRELIKYNTDCLVLRICASTQEPNKLYGIAFSETHEFYLVSFSLGS,not soluble
25,MGSDKIHHHHHHMLEHGGNLHVASQQYGIAREYWLDLSTGINPQGYPVPEIPASAWHRLPEADPPLERIAASYYGAQRLLVTAGSQAAIQALPRLRQPCRVTVLGPMYAEHAHAWRQQGHQVSEIDYLPSAAMLAETDVLLVCNPNNPTARLLAPSTLLEWHQVLSEHDGWLVVDEAFMDSTPEHSLAAYSHHSGLIILRSLGKFFGLAGARVGFVLAETPLLTRMADLLGPWAVTGPSSIVAQAALADHAWQQHHRAKLLAESRQLADMLRQAGLPARKGCALFQWLKLEHAERLHVQLARQGVWTRHFPALRGVRIGLPSADGWQKLAVALKELQLQDLSD,not soluble
